In the Human Domainome abundance scans (Beltran et al. 2025):
± gives the uncertainty stated by the source.

B1: Far upstream element-binding protein 2, residues 142 to 214; numbered along this chain, Q92945 (parent)
chain: RTSMTEEYRVPDGMVGLIIGRGGEQINKIQQDSGCKVQISPDSGGLPERSVSLTGAPESVQKAKMMLDDIVSR

Variants of: B1
Test: abundance fitness (aPCA) (normalised: wild type 0, dead -1); higher = more abundant; growth selection in yeast, the domain comes from the species named
Settings: Homo sapiens

Question: With RTSMTEEYRVPDGMVGLIIGRGGEQINKIQQDSGCKVQISPDSGGLPERSVSLTGAPESVQKAKMMLDCIVSR [D69C] as the variant, how does the abundance fitness read?
Answer: -0.133 ± 0.071

Question: With RTSMTEEYRVPDGMVGLIIGRGGEQINKIQQDSGCKVQISPDSGGLPERSVSLTGAPESVQKAKMMLDKIVSR [D69K] as the variant, how does the abundance fitness read?
Answer: -0.043 ± 0.064

Question: Which abundance fitness does the source give for RTSMTEEYRVPDGMVGLIIDRGGEQINKIQQDSGCKVQISPDSGGLPERSVSLTGAPESVQKAKMMLDDIVSR [G20D] here?
Answer: -0.086 ± 0.065

Question: With RTSMTEEYRVPDGMVGLIILRGGEQINKIQQDSGCKVQISPDSGGLPERSVSLTGAPESVQKAKMMLDDIVSR [G20L] as the variant, how does the abundance fitness read?
Answer: -1.07 ± 0.059

Question: For RTSMTEEYRVPDGMVGLIIGRGGEQINKIQQDSGCKVMISPDSGGLPERSVSLTGAPESVQKAKMMLDDIVSR [Q38M], which abundance fitness is on record?
Answer: 0.007 ± 0.069

Question: Which abundance fitness does the source give for RTSMTEEYRVPDGMVGLIIGRGGEQINKIQQDSGCKVKISPDSGGLPERSVSLTGAPESVQKAKMMLDDIVSR [Q38K] here?
Answer: -0.068 ± 0.067

Question: For RTSMTEEYRVPDGMVGLIIGRGGEQINKIQQDSGCKVQISPDSGGLPERSVSLTGAPESVQKAKMLLDDIVSR [M66L], which abundance fitness is on record?
Answer: -0.041 ± 0.046

Question: For RTSMTEEYRVPDGMVGLIIGEGGEQINKIQQDSGCKVQISPDSGGLPERSVSLTGAPESVQKAKMMLDDIVSR [R21E], which abundance fitness is on record?
Answer: 0.088 ± 0.04

Question: For RTSMTEEYRVPDGMVGLIIGKGGEQINKIQQDSGCKVQISPDSGGLPERSVSLTGAPESVQKAKMMLDDIVSR [R21K], which abundance fitness is on record?
Answer: 0.056 ± 0.051

Question: For RTSMTEEYRVPDGMVGLIIGRGGEQINKIQQDSGCKVQISPDSGGLPERSVSLTGAPESVQKAKMMVDDIVSR [L67V], which abundance fitness is on record?
Answer: -0.327 ± 0.043

Question: Which abundance fitness does the source give for RTSMTEEYRVPDGMVGLIIGRGGEQINKIQQDSGCKVQISPDSGGLPERSVSLGGAPESVQKAKMMLDDIVSR [T54G] here?
Answer: -0.586 ± 0.049

Question: With RTSMTEEYRVPDGMVGLIIGRGGEQINAIQQDSGCKVQISPDSGGLPERSVSLTGAPESVQKAKMMLDDIVSR [K28A] as the variant, how does the abundance fitness read?
Answer: -0.144 ± 0.048

Question: For RTSMTEEYRVPDGMVGLIIGRGGEQINKIQQWSGCKVQISPDSGGLPERSVSLTGAPESVQKAKMMLDDIVSR [D32W], which abundance fitness is on record?
Answer: -0.243 ± 0.057

Question: For RTSMTEEYRVPDGMVGLIIGRGGEQINKIQQHSGCKVQISPDSGGLPERSVSLTGAPESVQKAKMMLDDIVSR [D32H], which abundance fitness is on record?
Answer: -0.072 ± 0.088

Question: With RTSMTEEYRVPDGMVGLIIGRGGEQINKIQQESGCKVQISPDSGGLPERSVSLTGAPESVQKAKMMLDDIVSR [D32E] as the variant, how does the abundance fitness read?
Answer: -0.101 ± 0.061

Question: Which abundance fitness does the source give for RTSMTEEYRVPDGMVGLIIGRGGEQINKIQQDSGCKVQISLDSGGLPERSVSLTGAPESVQKAKMMLDDIVSR [P41L] here?
Answer: -0.172 ± 0.048

Question: For RTSMTEEYRVPDGMVGLIIGRGGEQINKIQQDSGCKVQISIDSGGLPERSVSLTGAPESVQKAKMMLDDIVSR [P41I], which abundance fitness is on record?
Answer: -0.024 ± 0.094

Question: For RTSMTEEYRVYDGMVGLIIGRGGEQINKIQQDSGCKVQISPDSGGLPERSVSLTGAPESVQKAKMMLDDIVSR [P11Y], which abundance fitness is on record?
Answer: -0.712 ± 0.11

Question: Which abundance fitness does the source give for RTSMTEEYRVDDGMVGLIIGRGGEQINKIQQDSGCKVQISPDSGGLPERSVSLTGAPESVQKAKMMLDDIVSR [P11D] here?
Answer: -0.122 ± 0.061

Question: For RTSMTEEYRVPDGMVGLIIGRGGEQINKIQQDSGCKVQISPDSGGLPERGVSLTGAPESVQKAKMMLDDIVSR [S50G], which abundance fitness is on record?
Answer: -0.071 ± 0.043

Question: With RTSMTEEYRVPDGMVGLIIGRGGEQINKIQQDSGCKVQISPDSGGLPERSVSLTGAPESVQKAKMMLDDINSR [V71N] as the variant, how does the abundance fitness read?
Answer: -0.461 ± 0.1

Question: Which abundance fitness does the source give for RTSMTEEYRVPDGMVGLIIGRGGEQINKIQQDSGCKVQISPDSGGLPERSVSLTGAPESVQKAKMMLDDIASR [V71A] here?
Answer: -0.142 ± 0.046

Question: For RTSMTEEYRVPDGMVGLIIGRGGEQHNKIQQDSGCKVQISPDSGGLPERSVSLTGAPESVQKAKMMLDDIVSR [I26H], which abundance fitness is on record?
Answer: -0.485 ± 0.091

Question: Which abundance fitness does the source give for RTSMTEEYRVPDGMVGLIIGRGGEQINKIQQDSTCKVQISPDSGGLPERSVSLTGAPESVQKAKMMLDDIVSR [G34T] here?
Answer: -0.537 ± 0.07

Question: For RTSMTEEYRVPDGMVGLIIGRGGEQINKIQQDSECKVQISPDSGGLPERSVSLTGAPESVQKAKMMLDDIVSR [G34E], which abundance fitness is on record?
Answer: -0.243 ± 0.056

Question: With RTSMTEEYRVPDGMVGLIIGRGGEQINKIQQDSGCKVQISPDSIGLPERSVSLTGAPESVQKAKMMLDDIVSR [G44I] as the variant, how does the abundance fitness read?
Answer: -0.339 ± 0.13

Question: With RTSMTEEYRVPDGMVGLIIGRGGEQINKIQQDSGCKVQISPDSWGLPERSVSLTGAPESVQKAKMMLDDIVSR [G44W] as the variant, how does the abundance fitness read?
Answer: -0.338 ± 0.06

Question: Which abundance fitness does the source give for RTSMTEEYRVPDGMVGLIIGRGGEQINKIQQDSGCKVQISPDSGVLPERSVSLTGAPESVQKAKMMLDDIVSR [G45V] here?
Answer: -0.107 ± 0.046

Question: For RTSMTEEYRVPDGMVGLIIGRAGEQINKIQQDSGCKVQISPDSGGLPERSVSLTGAPESVQKAKMMLDDIVSR [G22A], which abundance fitness is on record?
Answer: -0.126 ± 0.045

Question: Which abundance fitness does the source give for RTSMTEEYRVPDGMVGLIIGRGGEQINKIQQDSGCKVQISPDSGGLPERSVSLTWAPESVQKAKMMLDDIVSR [G55W] here?
Answer: -1.83 ± 0.19

Question: Which abundance fitness does the source give for RTSMTEEYRVPDGMVGLIIGRGGEQINKIQQDSGCKVQISPDSGGLPERSVSLTLAPESVQKAKMMLDDIVSR [G55L] here?
Answer: -1.18 ± 0.084

Question: With RTEMTEEYRVPDGMVGLIIGRGGEQINKIQQDSGCKVQISPDSGGLPERSVSLTGAPESVQKAKMMLDDIVSR [S3E] as the variant, how does the abundance fitness read?
Answer: 0.151 ± 0.048

Question: For RTQMTEEYRVPDGMVGLIIGRGGEQINKIQQDSGCKVQISPDSGGLPERSVSLTGAPESVQKAKMMLDDIVSR [S3Q], which abundance fitness is on record?
Answer: 0.124 ± 0.047

Question: With RTSMTEEYRVPDGMVGLIIGRGGEQINKIQQDSGCKVQISPDSGGLPERSVSLTGAGESVQKAKMMLDDIVSR [P57G] as the variant, how does the abundance fitness read?
Answer: -0.434 ± 0.048

Question: With RTSMTEYYRVPDGMVGLIIGRGGEQINKIQQDSGCKVQISPDSGGLPERSVSLTGAPESVQKAKMMLDDIVSR [E7Y] as the variant, how does the abundance fitness read?
Answer: 0.028 ± 0.063

Question: Which abundance fitness does the source give for RTSMTEEYRVPDGMVGLIIGRGGEQIKKIQQDSGCKVQISPDSGGLPERSVSLTGAPESVQKAKMMLDDIVSR [N27K] here?
Answer: 0.013 ± 0.057

Question: Which abundance fitness does the source give for RTSMTEEYRVPDGMNGLIIGRGGEQINKIQQDSGCKVQISPDSGGLPERSVSLTGAPESVQKAKMMLDDIVSR [V15N] here?
Answer: -0.376 ± 0.13

Question: Which abundance fitness does the source give for RTSMTEEYRVPDGMVGLIIGRGGEQINKIQQDSGCKVQASPDSGGLPERSVSLTGAPESVQKAKMMLDDIVSR [I39A] here?
Answer: -0.457 ± 0.05
